Measured values published in the supplement of paper PMC9732359.
± gives the uncertainty stated by the source.

Assay: protein stability index of a GFP-peptide fusion (yeast GPS) (PSI 1-4); higher = more stable; sorted into four equal gates, so the index is relative within each strain
Settings: ubr1∆
How it was run: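 Plasmids in a pooled yeast library fused tiled 17-residue yeast protein peptides downstream of GFP and also expressed Cherry. Mid-log cultures grown without leucine were sorted into four equal gates by GFP/Cherry fluorescence ratio. Each gate's plasmids were PCR-amplified and Illumina-sequenced, and reads were matched to strains by barcodes. The protein stability index is derived by multiplying each gate's read frequency by its gate number and summing the results.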

| Sequence | protein stability index |
| --- | --- |
| EGLSAQIAFDLVSSASQ [RPN2] | 2.62 ± 0.039 |
| EGPKKCIQVNCLNCEKS [SNM1] | 2.22 ± 0.049 |
| EGQLKPGDGSSYINVTF [RPC25] | 3.02 ± 0.11 |
| EGTPINNVYFAAGALFV [RPN14] | 2.45 ± 0.11 |
| EGWFYKRAASVARHIYM [RPS19A] | 2.33 ± 0.17 |
| EGYGLRDVMCTDGVIGS [RPO31] | 2.84 ± 0.06 |
| EHFLKLNIDFGSDKQMF [YML103C/NUP188] | 3.16 ± 0.061 |
| EHLDCMNFISKEEFIMM [PCI8] | 3.17 ± 0.16 |
| EIDHQEYSPEILQIREE [RRP6] | 3.18 ± 0.048 |
| EIENLDKELRKTKFQYK [YIL149C/MLP2] | 2.92 ± 0.074 |
| EIEQNTELLDEFIAAVN [RPN10] | 3.16 ± 0.082 |
| EIESIDKLPQFVDENTF [RPN1] | 3.32 ± 0.1 |
| EIFHLLQPLEEGLIIDT [SIN4] | 1.97 ± 0.093 |
| EIIADWIWDMNVHGSLE [BRR2] | 2.18 ± 0.054 |
| EIILKLCRNPLTSGLLY [YJL039C/NUP192] | 1.17 ± 0.046 |
| EIKKMIITNINAIFLSS [YCG1] | 1.81 ± 0.12 |
| EIKLLEISCKQWEISNM [CSI1] | 3.55 ± 0.23 |
| EIKNDFIMVKGCIPGNR [RPL3] | 1.45 ± 0.11 |
| EILNECHDELKALPMLE [MED4] | 3.09 ± 0.088 |
| EILRIHSRKMNLTRGIN [RPT6] | 2.52 ± 0.06 |
| EILVEESGLRPVSLLNS [PCI8] | 2.54 ± 0.087 |
| EILVLYNVCDTSKSLVK [SIN4] | 2.97 ± 0.057 |
| EINETEFIRCGCLIKNL [RMP1] | 2.91 ± 0.055 |
| EIPEGVTVSIKSRIVKV [RPL9B] | 1.35 ± 0.11 |
| EIRAKEYKTSSDSLGPD [SRB2] | 2.98 ± 0.06 |
| EISISFDVNNIDMHLIY [YDL116W/NUP84] | 2.25 ± 0.057 |

| Sequence | protein stability index |
| --- | --- |
| EISPQDSIASVLSPDSN [GAL11] | 2.64 ± 0.055 |
| EIVWTSSLIKAGLDKGI [RPO31] | 1.57 ± 0.057 |
| EKAVEEKPAVKSYASLL [RPT3] | 2.96 ± 0.049 |
| EKDFCTSCLQNNNQKID [SRB8] | 2.93 ± 0.055 |
| EKGLNELSIRDVTHTLG [SMC4] | 1.57 ± 0.1 |
| EKIKMKLKQGQKLFVQV [GAL11] | 3.23 ± 0.14 |
| EKKAASAKQTAPNNSNG [MED7] | 2.41 ± 0.24 |
| EKKAEYFAKLREYLEEY [RPP0] | 3.54 ± 0.099 |
| EKKGIVQASVTSSTHER [RET1] | 3.24 ± 0.11 |
| EKLKQFSWISVVNDLVG [SIR3] | 1.55 ± 0.034 |
| EKLNKTDENTPSADGAD [ITC1] | 3.05 ± 0.05 |
| EKLTLVTLSEIYNELSY [CSN9] | 1.49 ± 0.046 |
| EKNGGLGWDLDAIIPFA [FAS2] | 3.08 ± 0.068 |
| EKNYDRKEPPATVEECV [PRE6] | 3.3 ± 0.072 |
| EKQIEELLDNCIETFVA [SRB6] | 3.32 ± 0.12 |
| EKSPDPTIRSNAVLGLG [YCS4] | 2.53 ± 0.043 |
| EKVRDYENSISKDLRSV [IRR1] | 2.03 ± 0.051 |
| ELAKEAKKSTTISKEST [ESC2] | 2.85 ± 0.063 |
| ELDQFWQEYSSVFKGGM [SRP14] | 3.13 ± 0.081 |
| ELEGSFNKSAELSRIEN [YCS4] | 3.11 ± 0.12 |
| ELEMIGGTNEDDFTDAI [YCS4] | 3.7 ± 0.19 |
| ELEQLSSEALEAARICA [RPL10] | 1.12 ± 0.06 |
| ELESMLEDLKNTKEIAV [RRP6] | 2.61 ± 0.044 |
| ELFKDYKPGSITLENIT [MED1] | 2.11 ± 0.042 |
| ELGTAVGKLFRVGVVSI [RPL30] | 1.29 ± 0.095 |
| ELIIDPLFKKALVDFDE [BRN1] | 3.29 ± 0.13 |

| Sequence | protein stability index |
| --- | --- |
| ELKTRDATNTSYKMIQL [SWP82] | 3.29 ± 0.047 |
| ELLANKCPLLVEVDITL [GRR1] | 1.47 ± 0.041 |
| ELLNADHQHILRKLKKM [RPC53] | 1.28 ± 0.046 |
| ELLSSLEGKGSLEEIIA [RPP2B] | 1.92 ± 0.064 |
| ELNVEKLNTFNLQTFTH [SRP72] | 2.42 ± 0.15 |
| ELSDNEENFEATRTLVA [YCG1] | 3.04 ± 0.081 |
| ELSDSWRAHDSSIVAID [YGL100W/SEH1] | 2.8 ± 0.08 |
| ELTKNPNSNVELAGGNA [SMC1] | 3.37 ± 0.12 |
| ELVDMAGAGEANGTVVS [MTR3] | 3.05 ± 0.087 |
| ELVKAHLGERAASVIGM [RPC82] | 2.52 ± 0.086 |
| EMDEKSYEKNEDHVEDH [LIN1] | 3.14 ± 0.052 |
| EMINEQKLPQYIIQGSN [RGR1] | 3.15 ± 0.2 |
| EMIRGRSPEEIRRTFNI [SKP1] | 2.34 ± 0.28 |
| EMKIGSIESKLEEHKNH [SMC1] | 3.01 ± 0.099 |
| ENELFNDRKQTTVSNDL [SSN2] | 3.02 ± 0.081 |
| ENEVSDIDVTIVSKEYE [ESC2] | 1.96 ± 0.066 |
| ENHNGQSISNENDVKPI [SWI3] | 2.48 ± 0.045 |
| ENHNKGKLWKDVKARIA [QCR9] | 2.83 ± 0.12 |
| ENIIQMEMIENRTMDGK [FAS1] | 3.02 ± 0.069 |
| ENLPGLSISVAAEPMDS [SNU114] | 3.17 ± 0.095 |
| ENPDLSTKKKILGIHTS [RPT2] | 2.9 ± 0.15 |
| ENPTPEKGNAKMIDFAT [SIR3] | 3.03 ± 0.068 |
| ENSAVAAKEGLALSSNI [COR1] | 2.17 ± 0.053 |
| EPENNTVIEGVKEESQP [SWI3] | 2.99 ± 0.081 |
| EPHAVSLAWSADGQTLF [ASC1] | 2.79 ± 0.26 |
| EQFYTKDIIDPKLTSIF [RPN2] | 2.47 ± 0.09 |

| Sequence | protein stability index |
| --- | --- |
| EQHHINNLKNSGNSANN [GAL11] | 2.32 ± 0.13 |
| EQKKTATEVTPQEPKHI [RPC19] | 2.54 ± 0.04 |
| EQKLIDQHVINILWAIY [YCS4] | 1.68 ± 0.035 |
| EQLSEEDAKLKTDLELL [RPN1] | 3 ± 0.13 |
| EQTCVKLLDSGCENPAD [SRP72] | 3.46 ± 0.073 |
| EQVLSAAATFPIAQPAT [RPL13A] | 2.54 ± 0.043 |
| ERLMSRPFGVALLIAGH [PUP2] | 2.95 ± 0.081 |
| ERPPYILNSYGVLKPDI [SIR2] | 3.15 ± 0.061 |
| ESGIKPYFEQKIQETEL [RPT6] | 3.23 ± 0.094 |
| ESGSTPISISNAPTFNP [YAR002W/NUP60] | 2.63 ± 0.058 |
| ESKLRDDLERLKKIRAH [RPS18A] | 3.3 ± 0.048 |
| ESKLSLETLFNRWHSES [FAS2] | 3.11 ± 0.065 |
| ESNVNDSDMLTKSHNTV [NUT1] | 3.43 ± 0.1 |
| ESQLQMDRTSLRKQYSA [SMC3] | 2.86 ± 0.094 |
| ESRKAFFLGYMINRLLL [RPB2] | 1.09 ± 0.072 |
| ESTSSTEEVEALLQRLK [MTW1] | 3.23 ± 0.19 |
| ESTTEATGNESQDATKV [YLR335W/NUP2] | 3.21 ± 0.075 |
| ESVLPAARYDYAVAEQC [QCR2] | 1.98 ± 0.06 |
| ESYKPSVQLPDMAKLKK [SWI3] | 2.79 ± 0.068 |
| ETIKMKELDQELIIDPL [BRN1] | 3.01 ± 0.064 |
| ETKDIRKQIQLLKKIIF [SRB4] | 2.39 ± 0.039 |
| ETQFKLSRPYKALKTNI [CDC53] | 2.45 ± 0.052 |
| ETQYFWKLLNQLVLRGL [YJR042W/NUP85] | 1.16 ± 0.1 |
